Data from patent KR20210073785A (dated 2021).

Biological target: T1, 호산구 유래 신경독(eosinophil-derived neurotoxin, EDN) (UniProt P10153 28-161)
T1 construct: also called 항원 EDN
T1 sequence (looked up): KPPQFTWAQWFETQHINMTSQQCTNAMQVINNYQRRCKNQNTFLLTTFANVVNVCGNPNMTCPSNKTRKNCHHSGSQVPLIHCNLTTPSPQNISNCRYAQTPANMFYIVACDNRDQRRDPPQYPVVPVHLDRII
Assay: BLI (Octet), AR2G amine-reactive biosensor, antibody immobilised, EDN as analyte at 12.5, 6.25, 3.13, 1.56 and 0.78 nM, 1X kinetic buffer

B1: 단일클론항체 Anti-6C5 (antibody, V domains shown)
VH: EVQLQQPGPELVKPGASVKISCKASAYSFTDYIMLWVKQSHGKSLEWIGNIHPYYGSSSYNLKFKGKATLTVDKSSSTAYMQLNSLTSEDSAVYYCAREVGFGKGGFDYWGQGTTLTVSS
VL: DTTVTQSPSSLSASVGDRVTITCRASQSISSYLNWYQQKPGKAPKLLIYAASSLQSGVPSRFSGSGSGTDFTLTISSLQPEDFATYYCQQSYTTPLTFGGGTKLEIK
notes: Whole monoclonal antibody produced from hybridoma cell line 6C5 (culture supernatant); The heavy chain ran at 50 kDa on reducing SDS-PAGE; also called Anti-6C5(6C5)
- Kd: 0.0576 nM
